For series [1], the target named is T1, L-selectin (LS-Rg) (Homo sapiens, UniProt P14151 P14151:39-332).
T1 chain: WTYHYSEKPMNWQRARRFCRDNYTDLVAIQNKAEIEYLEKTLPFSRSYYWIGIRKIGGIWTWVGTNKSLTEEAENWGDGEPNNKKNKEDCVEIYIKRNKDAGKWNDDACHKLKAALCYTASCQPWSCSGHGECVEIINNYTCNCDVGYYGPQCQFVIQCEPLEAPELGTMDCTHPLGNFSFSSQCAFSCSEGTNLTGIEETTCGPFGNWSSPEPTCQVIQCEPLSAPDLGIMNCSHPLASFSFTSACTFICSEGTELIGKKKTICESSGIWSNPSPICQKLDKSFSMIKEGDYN
As to the kind of experiment: filter; room temp; 380 pM at 37 C; table prints SEQ 155, Table XII and text give 133. To be noted: tags: human IgG2 Fc fusion (provided by A. Varki); label: 32P; hairpin.

The target of series [2] is T2, P-selectin (PS-Rg) (Homo sapiens, UniProt P16109 P16109:42-321).
T2 chain: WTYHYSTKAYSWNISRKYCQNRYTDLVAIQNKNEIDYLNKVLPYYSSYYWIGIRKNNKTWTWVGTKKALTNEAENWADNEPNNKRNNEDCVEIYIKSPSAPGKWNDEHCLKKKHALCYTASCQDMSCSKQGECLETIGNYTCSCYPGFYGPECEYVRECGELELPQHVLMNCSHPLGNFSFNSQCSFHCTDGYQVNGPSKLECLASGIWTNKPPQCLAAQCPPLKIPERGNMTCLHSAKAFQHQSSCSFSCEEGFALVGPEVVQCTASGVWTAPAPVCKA
The experiment in a line: filter; room temp, Ca/Mg buffer. To be noted: tags: lectin, EGF and first two CRD domains fused to human IgG1 Fc (provided by A. Varki); chain copies: 2 (dimeric Fc chimera, inferred). The protocol: (§1) RNA was reverse transcribed into cDNA by AMV reverse transcriptase at 48° C. for 60 min in 50 mM Tris-Cl pH (8.3), 60 mM NaCl, 6 mM Mg(OAc)_2, 10 mM DTT, 100 pmol DNA primer, 0.4 mM each of dNTPs, and 0.4 unit/µl AMV RT. […] C) Nitrocellulose Filter Partitioning As described in SELEX Patent Applications, the nitrocellulose filter partitioning method was used to determine the affinity of RNA ligands for WGA and for other proteins. Filter discs (nitrocellulose/cellulose acetate mixed matrix, 0.45 µm pore size, Millipore; or pure nitrocellulose, 0.45 µm pore size, Bio-Rad) were placed on a vacuum manifold and washed with 4 ml of HBSS buffer under vacuum. Reaction mixtures, containing ^32P labeled RNA pools and unlabeled WGA, were incubated in HBSS for 10 min at room temperature, filtered, and then immediately washed with 4 ml HBSS. The filters were air-dried and counted in a Beckman LS6500 liquid scintillation counter without fluor. WGA is a homodimer, molecular weight 43.2 kD, with 4 GlcNAc binding sites per dimer. For affinity calculations, we assume one RNA ligand binding site per monomer (two per dimer). The monomer concentration is defined as 2 times the dimer concentration. The equilibrium dissociation constant, K_d, for an RNA pool or specific ligand that binds monophasically is given by the equation $$K_d=[P_f][R_f]/[RP]$$
(§2) The affinity of representative cloned ligands for LS-Rg, ES-Rg, PS-Rg, CD22β-Rg and WGA was determined by nitrocellulose partitioning and the results shown in Table XIV. The ligands are highly specific for L-selectin.
(§3) *Kds were determined at room temperature.

Series [3] concerns the target T3, E-selectin (ES-Rg) (Homo sapiens, UniProt P16581 P16581:22-556).
T3 chain: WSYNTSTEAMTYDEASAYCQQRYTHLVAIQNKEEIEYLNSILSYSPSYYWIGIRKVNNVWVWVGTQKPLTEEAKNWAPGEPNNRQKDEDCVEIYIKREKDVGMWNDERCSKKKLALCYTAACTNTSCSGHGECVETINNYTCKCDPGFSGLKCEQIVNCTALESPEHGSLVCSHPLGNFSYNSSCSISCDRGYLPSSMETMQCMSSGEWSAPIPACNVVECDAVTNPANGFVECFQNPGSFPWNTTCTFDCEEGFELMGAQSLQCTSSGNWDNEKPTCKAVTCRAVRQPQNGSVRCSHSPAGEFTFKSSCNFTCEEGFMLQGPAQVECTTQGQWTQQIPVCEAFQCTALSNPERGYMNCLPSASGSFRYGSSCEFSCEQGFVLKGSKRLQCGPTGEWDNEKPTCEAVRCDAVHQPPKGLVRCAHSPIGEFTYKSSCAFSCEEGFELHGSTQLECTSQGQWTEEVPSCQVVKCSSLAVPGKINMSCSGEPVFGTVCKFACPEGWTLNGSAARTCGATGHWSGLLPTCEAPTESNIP
As to the kind of experiment: filter; room temp, Ca/Mg buffer. Conditions: tags: extracellular domain fused to human IgG1 Fc (provided by A. Varki); chain copies: 2 (dimeric Fc chimera, inferred). The method, then: as §1, §2, §3

In series [4] the target is T1, L-selectin (LS-Rg). The experiment in a line: filter; room temp; 370 pM at 37 C. Conditions: tags: human IgG2 Fc fusion (provided by A. Varki); label: 32P.
The target of series [5] is T2, P-selectin (PS-Rg). As to the kind of experiment: filter; room temp. To be noted: tags: human IgG1 Fc fusion (provided by A. Varki); chain copies: 2; label: 32P; hairpin. The method, then:
as §1, with “The equilibrium dissociation constant, K_d, for an RNA pool or specific ligand that binds monophasically is given by the equation $$K_d=[P_f][R_f]/[RP]$$” left out
(§4) The affinity of representative cloned ligands for LS-Rg, ES-Rg, PS-Rg, CD22β-Rg and WGA was determined by nitrocellulose partitioning and the results shown in Table XIV. […]
as §3

Series [6] addresses T3, E-selectin (ES-Rg). The experiment in a line: filter; room temp. Conditions: tags: human IgG1 Fc fusion (provided by A. Varki); chain copies: 2; label: 32P; hairpin. The method, then:
as §1, with “The equilibrium dissociation constant, K_d, for an RNA pool or specific ligand that binds monophasically is given by the equation $$K_d=[P_f][R_f]/[RP]$$” left out
as §4, §3

Series [7] concerns the target T1, L-selectin (LS-Rg). The experiment in a line: filter; room temp, Ca/Mg; 160 pM at 37 C. Conditions: tags: human IgG2 Fc fusion (provided by A. Varki); label: 32P; hairpin.
In series [8] the target is T1, L-selectin (LS-Rg). The experiment in a line: filter; room temp; 1.0 nM at 37 C. Conditions: tags: human IgG2 Fc fusion (provided by A. Varki); label: 32P; hairpin.
Series [9] concerns the target T1, L-selectin (LS-Rg). As to the kind of experiment: filter; room temp; 2.0 nM at 37 C. Conditions: tags: human IgG2 Fc fusion (provided by A. Varki); label: 32P; hairpin.
Series [10] has as its target T1, L-selectin (LS-Rg). As to the kind of experiment: filter; room temp; 3.4 nM at 37 C. Conditions: tags: human IgG2 Fc fusion (provided by A. Varki); label: 32P.
Series [11] deals with T1, L-selectin (LS-Rg). As to the kind of experiment: filter; room temp; 260 pM at 37 C. To be noted: tags: human IgG2 Fc fusion (provided by A. Varki); label: 32P; hairpin.
In series [12] the target is T1, L-selectin (LS-Rg). As to the kind of experiment: filter; room temp; 3.7 nM at 37 C. Conditions: tags: human IgG2 Fc fusion (provided by A. Varki); label: 32P; hairpin.
For series [13], the target named is T1, L-selectin (LS-Rg). The experiment in a line: filter; room temp; 970 pM at 37 C. To be noted: tags: human IgG2 Fc fusion (provided by A. Varki); label: 32P; hairpin.
The target in series [14] is T1, L-selectin (LS-Rg). The experiment in a line: filter; room temp; 1.2 nM at 37 C; Table XIV prints 110 nM. Conditions: tags: human IgG2 Fc fusion (provided by A. Varki); label: 32P; hairpin.
The target of series [15] is T1, L-selectin (LS-Rg). The experiment in a line: filter; room temp; 8.5 nM at 37 C. To be noted: tags: human IgG2 Fc fusion (provided by A. Varki); label: 32P; hairpin.
In series [16] the target is T1, L-selectin (LS-Rg). As to the kind of experiment: filter; room temp; 1.6 nM at 37 C. Conditions: tags: human IgG2 Fc fusion (provided by A. Varki); label: 32P.

B1: 208 (ssDNA)
DNA: CTACCTACGATCTGACTAGCCACGTTTCAAGGGGTTACACGAAACGATTCACTCCTTGGCGCTTACTCTCATGTAGTTCC
On to B1, for which the Kd with L-selectin (LS-Rg) [1] is 0.11 nM.

B2: 174 (ssDNA)
DNA: CTACCTACGATCTGACTAGCCATTCACCATGGCCCCTTCCTACGTATGTTCTGCGGGTGGCTTACTCTCATGTAGTTCC
B2: the Kd is 380 nM with P-selectin (PS-Rg) [2], 28 nM in the series with E-selectin (ES-Rg) [3] and 0.043 nM with L-selectin (LS-Rg) [4].

B3: 227 (ssDNA)
DNA: CTACCTACGATCTGACTAGCCGGACATGAGCGTTACAAGGTGCTAAACGTAACGTACTTGCTTACTCTCATGTAGTTCC
As for B3, the Kd was found to be 560 nM with P-selectin (PS-Rg) [5], 33 nM with E-selectin (ES-Rg) [6] and 0.043 nM in the series with L-selectin (LS-Rg) [7].

B4: 183 (ssDNA)
DNA: CTACCTACGATCTGACTAGCGGCATCCCTGAGTCATTACAAGGTTCTTAACGTAATGTACGCTTACTCTCATGTAGTTCC
In the case of B4, the affinity with L-selectin (LS-Rg) [8], expressed as Kd, was 0.17 nM.

B5: 182 (ssDNA)
DNA: CTACCTACGATCTGACTAGCTAGTGCTCCACGTATTCAAGGTGCTAAACGAAGACGGCCTGCTTACTCTCATGTAGTTCC
In the series with L-selectin (LS-Rg) [9], B5 gave a dissociation constant (Kd) of 0.13 nM.

B6: 196 (ssDNA)
DNA: CTACCTACGATCTGACTAGCTGGCGGTACGGGCCGTGCACCCACTTACCTGGGAAGTGAGCTTACTCTCATGTAGTTCC
For B6, the Kd with P-selectin (PS-Rg) [2] was found to be 3400 nM; with E-selectin (ES-Rg) [3], 50 nM; in the series with L-selectin (LS-Rg) [10], 0.13 nM.

B7: 230 (ssDNA)
DNA: CTACCTACGATCTGACTAGCTGCACACCTGAGGGTTACAAGGCGCTAGACGTAACCTCTCGCTTACTCTCATGTAGTTCC
With B7, the values for the Kd with P-selectin (PS-Rg) [2], with E-selectin (ES-Rg) [3] and with L-selectin (LS-Rg) [11] were 600 nM, 19 nM and 0.057 nM, respectively.

B8: 204 (ssDNA)
DNA: CTACCTACGATCTGACTAGCGGAACACGTGAGGTTTACAAGGCACTCGACGTAAACACTTGCTTACTCTCATGTAGTTCC
As to B8, the results for the equilibrium dissociation constant (Kd) with P-selectin (PS-Rg) [2], in the series with E-selectin (ES-Rg) [3] and in the series with L-selectin (LS-Rg) [12] were 2900 nM, 1500 nM and 0.1 nM, respectively.

B9: 193 (ssDNA)
DNA: CTACCTACGATCTGACTAGCCCAGGAGCACAGTACAAGGTGTTAAACGTAATGTCTGGTGCTTACTCTCATGTAGTTCC
B9 displayed a dissociation constant Kd with L-selectin (LS-Rg) [13] of 0.088 nM.

B10: 201 (ssDNA)
DNA: CTACCTACGATCTGACTAGCCAAGGTAACCAGTACAAGGTGCTAAACGTAATGGCTTCGGCTTACTCTCATGTAGTTCC
As for B10, the Kd in the series with P-selectin (PS-Rg) [2] was 1000 nM; in the series with E-selectin (ES-Rg) [3], 37 nM; in the series with L-selectin (LS-Rg) [14], 0.11 nM.

B11: 108 (ssDNA)
DNA: CTACCTACGATCTGACTAGCGAGTAGCCAAGGCGTTAGACGGAGGGGGAATGTGAGCACAGCTTACTCTCATGTAGTTCC
B11 had a Kd with L-selectin (LS-Rg) [15] of 0.16 nM.

B12: 239 (ssDNA)
DNA: CTACCTACGATCTGACTAGCCCACAGACAATCGCAGTCCCCGTGTAGCTCTGGGTGTCTGCTTACTCTCATGTAGTTCC
Take B12: the Kd with L-selectin (LS-Rg) [16] stood at 0.17 nM.

The values are drawn from patent publication US6001988, “High affinity nucleic acid ligands to lectins” (NeXstar Pharmaceuticals, Inc.).
